We go through 21 variants from the RNAGym collection of RNA variant scans (doi:10.1073/pnas.2313332121).

B1: TPR t1 (parent)
chain: GACCAAUCUGCCCUCAGAGCUCGAGAACAUCUUCGGAUGCAGAGGAGGCAGGCUUCGGUGGCGCGAUAGCGCCAACGUCCUCAACCUCCAAUGCAUCCCACCACAUGAUGAUGCCUGAAGAGCCUUGGUUUUUUG

The variants in the data set derive from B1. Kind of data set: polymerase ribozyme fitness, log enrichment relative to wild type (log ratio); higher = more active; in vitro selection for triplet polymerase activity. In outline:
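The heterodimeric triplet polymerase ribozyme's subunits were each mutagenized into PCR-built libraries and transcribed. Every library was selected once, in triplicate, by annealing with a biotinylated primer, the partner subunit and triplets, incubating frozen at −7 °C, gel-excising extended constructs, capturing on streptavidin beads and running RT-PCR. Input and output libraries were Illumina-sequenced, with genotypes kept only at ≥10 input reads and ≥1 read per output. Fitness, from inverse-variance-weighted replicate averages, is the base-2 logarithm of genotype enrichment over wild-type enrichment.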
Take GACCAAUCUGCCCUCAGAGCUCGAGAACAUCUUCGGAUGCAGAGGAGGCAGGCUUCGGUGGAGCGAUAGCGCCAACGUCCUCAACCUCCACUGCAUCGCACCACAUGAUGCUGCUUGUAGAACCUGGGUUUUUUG [C62A A91C C98G A111C C115U A118U G122A U126G]: the “polymerase ribozyme fitness (log ratio)” value was -7.7.
Turning to GACCAAUCUGCCCUCAGAGCUCGAGAACAUCUUCGGAUGCAGAGGAGGCAGGCUUCGGUGGAGCGAUAGCGCCAACGUCCUCAACCUCAAAUGCAUCCCACCACAUGAUGAUGCCUGAAGAGCCUUGGUUUUUUG [C62A C89A], the “polymerase ribozyme fitness (log ratio)” value is -3.57.
With GACCAAUCUGCCCUCAGAGCUCGAGAACAUCUUCGGAUGCAGAGGAGGCAGGCUUCGGUGGAGCGAUAGCGCCAACGUCCUCAACCUCCAAUGCAUCCCAGCACAUGAUGAUGCCUGAAGAGCCUUGGUUUUUUG [C62A C101G], the “polymerase ribozyme fitness (log ratio)” value is -2.98.
On to GACCAAUCUGCCCUCAGAGCUCGAGAACAUCUUCGGAUGCAGAGGAGGCAGGCUUCGGUGUCGCGAUAGCGCCAACGCCCUCAACCUCCAAUGCAUCCCACCACAUGAUGAUCCCUGAAGAGCCUUGGUGUUUUG [G61U U78C G113C U130G], for which the “polymerase ribozyme fitness (log ratio)” value is -2.86.
For GACCAAUCUGCCCUCAGAGCUCGAGAACAUCUUCGGAUGCAGAGGAGGCAGGCUUCGGUGGAGCGAUAGCGCCAACGUCCUCAACCUCCAAUGCAUCCCACCACAUGAUGAUGCCUGAAGUGCCUUGGUUUUUUG [C62A A121U] the value was 1.32.
Regarding GACCAAUCUGCCCUCAGAGCUCGAGAACAUCUUCGGAUGCAGAGGAGGCAGGCUUCGGUGUCGCGAUAGCGCCAACGUCCUCAACCCCCAAUGCAUCCCACCACAUGAUGAUGCCUGAAGAGCCUUGGUUUUUUG [G61U U87C], the “polymerase ribozyme fitness (log ratio)” value amounted to 0.519.
As for GACCAAUCUGCCCUCAGAGCUCGAGAACAUCUUCGGAUGCAGAGGAGGCAGGCUUCGGUGUCGCGAUAGCGCCAACGUCCUCAACCUCCAAUGCAUCCCACCACAUGAUGAUGCCUGAAGAGCCUUCGUUUUUUG [G61U G127C], the “polymerase ribozyme fitness (log ratio)” value is -0.698.
On to GACCAAUCUGCCCUCAGAGCUCGAGAACAUCUUCGGAUGCAGAGGAGGCAGGCUUCGGUGGAGCGAUAGCGCCAACAUCCUCAACCUCCAAUGCAUCCCACCACAUGAUGAUGCCUGAAGAGCCUUGGUUUUUUG [C62A G77A], for which the “polymerase ribozyme fitness (log ratio)” value is -2.78.
For GACCAAUCUGCCCUCAGAGCUCGAGAACAUCUUCGGAUGCAGAGGAGGCAGGCUUCGGUGGAGCGAUAGCGCCAACUUCCUCAACCUCCAAUGCAUCCCACCACAUGAUGAUGCCUGAAGAGCCUUGGUUUUUUG [C62A G77U] the value was -1.77.
As for GACCAAUCUGCCCUCAGAGCUCGAGAACAUCUUCGGAUGCAGAGGAGGCAGGCUUCGGUGUCGCGAUAGCGCCAACGUCCUCAACCUCCAAUGCAUCCCACCACACGAUGAUGCCUGAAGAGCCUUGGUUUUUUG [G61U U106C], the figure is 0.11; as for GACCAAUCUGCCCUCAGAGCUCGAGAACAUCUUCGGAUGCAGAGGAGGCAGGCUUCGGUGUCGCGAUAGCGCCAACGUCCUCAACCUCCAAUGCAUCCCACCACAUGAUGACGCCUGAAGAGCCUUGGUUUUUUG [G61U U112C], 0.845; as for GACCAAUCUGCCCUCAGAGCUCGAGAACAUCUUCGGAUGCAGAGGAGGCAGGCUUCGGUGGAGCGAUAGCGCCAACGUCCUCAACCUCCAAUGCAUCCCACAACAUGAUGAUGCCUGAAGAGCCUUGGUUUUUUG [C62A C102A], -3.33.
Consider GACCAAUCUGCCCUCAGAGCUCGAGAACAUCUUCGGAUGCAGAGGAGGCAGGCUUCGGUGGAGCGAUAGCGCCAACGUCCUCAACCUCCAGUGCAUCCCACCACAUGAUGAUGCCUGAAGAGCCUUGGUUUUUUG [C62A A91G], for which the “polymerase ribozyme fitness (log ratio)” value is -2.78.
Regarding GACCAAUCUGCCCUCAGAGCUCGAGAACAUCUUCGGAUGCAGAGGAGGCAGGCUUCGGUGUCGCGAUAGCGCCAACGCCCUCAACCUCCAAUGCAUCCCACCACAUGAUGAUGCCAGAAGAGCCUUGGUUUUUUG [G61U U78C U116A], the “polymerase ribozyme fitness (log ratio)” value is -2.17.
As for GACCAAUCUGCCCUCAGAGCUCGAGAACAUCUUCGGAUGCAGAGGAGGCAGGCUUCGGUGUCGCGAUAGCGCCAACGUCCUCAACCUCCAAUGCAUCCCACCACAUGAAGAUGCCUGAAGAGCCUUGGUUUUUUG [G61U U109A], the figure is -3.77; as for GACCAAUCUGCCCUCAGAGCUCGAGAACAUCUUCGGAUGCAGAGGAGGCAGGCUUCGGUGGAGCGAUAGCGCCAACGUCCUCAACCUCCAAUGCAUCCCACCACAUGAUGAUGCCUGAAGAGCCUUAGUUUUUUG [C62A G127A], -2.22; as for GACCAAUCUGCCCUCAGAGCUCGAGAACAUCUUCGGAUGCAGAGGAGGCAGGCUUCGGUGGAGCGAUAGCGCCAACGUCCUCAACCUCCAAUGCAUCCCAGCAUAUGAUGAUGCCUGAAGAGCCUUGGUUUUUUG [C62A C101G C104U], -2.15.
As for GACCAAUCUGCCCUCAGAGCUCGAGAACAUCUUCGGAUGCAGAGGAGGCAGGCUUCGGUGGAGCGAUAGCGCGAACGUCCUCAACCUCCAAUGCAUCCCACCACAUGAUGAUGCCUCAAGAGCCUUGGGUUUUUG [C62A C73G G117C U129G], the “polymerase ribozyme fitness (log ratio)” value is -6.43.
Turning to GACCAAUCUGCCCUCAGAGCUCGAGAACAUCUUCGGAUGCAGAGGAGGCAGGCUUCGGUGGAGCGAUAGCGCCAACGUCCUCAACCUCCAAUGCAUCCCACCACAUGAUGAUGCCUGCAGAGCCUUGGUUUUUUG [C62A A118C], the “polymerase ribozyme fitness (log ratio)” value was -2.96.
GACCAAUCUGCCCUCAGAGCUCGAGAACAUCUUCGGAUGCAGAGGAGGCAGGCUUCGGUGGAGCGAUAGCGCCAACGUCCUCAACCUCCAAUGCAUCCCACCACAUGAUGAUGCCUGAAAAGCCUUGGUUUUAUG [C62A G120A U133A]: the “polymerase ribozyme fitness (log ratio)” value was -0.165.
Turning to GACCAAUCUGCCCUCAGAGCUCGAGAACAUCUUCGGAUGCAGAGGAGGCAGGCUUCGGUGUCGCGAUAGCGCCAACGUCCUCAACCUCCAAUGCAUCCCACCACAUGAUGAUGCCUGAAGAGCCUUGGUUUUUUU [G61U G135U], the “polymerase ribozyme fitness (log ratio)” value was -1.65.
